Legend:
[1] = target: human fibroblast activation protein (FAP) on FAP-expressing human WI-38 fibroblasts (human); experiment: competition FACS, WI-38 cells, vs Cy5-labeled compound; A: pIC50 >8.0
[2] = target: T1, Recombinant human FAP (R&D systems, #3715-SE) (human)
T1 sequence: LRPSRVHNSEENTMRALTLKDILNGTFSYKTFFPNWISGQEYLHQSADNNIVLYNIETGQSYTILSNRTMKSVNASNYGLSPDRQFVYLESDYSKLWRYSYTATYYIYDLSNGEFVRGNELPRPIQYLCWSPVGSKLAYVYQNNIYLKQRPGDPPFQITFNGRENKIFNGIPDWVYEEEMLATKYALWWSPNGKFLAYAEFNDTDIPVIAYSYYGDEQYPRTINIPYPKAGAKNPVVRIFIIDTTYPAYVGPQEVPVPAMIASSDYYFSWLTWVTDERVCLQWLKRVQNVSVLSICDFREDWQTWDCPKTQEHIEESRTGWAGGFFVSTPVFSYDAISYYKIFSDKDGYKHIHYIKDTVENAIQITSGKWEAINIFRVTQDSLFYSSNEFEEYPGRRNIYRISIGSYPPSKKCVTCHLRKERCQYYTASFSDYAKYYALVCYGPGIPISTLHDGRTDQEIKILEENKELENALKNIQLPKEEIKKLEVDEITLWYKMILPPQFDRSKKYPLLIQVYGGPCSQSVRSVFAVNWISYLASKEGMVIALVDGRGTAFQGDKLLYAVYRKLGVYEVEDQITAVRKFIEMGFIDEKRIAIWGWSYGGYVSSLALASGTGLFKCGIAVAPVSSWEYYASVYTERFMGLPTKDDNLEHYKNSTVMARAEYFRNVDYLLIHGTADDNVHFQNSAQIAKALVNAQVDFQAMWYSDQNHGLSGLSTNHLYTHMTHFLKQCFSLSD

| pIC50 Category (FACS) [1] [pIC50] | pIC50 Category (Activity) [2] [pIC50] | Substance |
| --- | --- | --- |
| > 8 | > 8 | Hex-[Cys(3MeBn)-Pro-Pro-Thr-Glu-Phe-Cys]-Asp-Gab-Arg-NH2 (peptide) |
| > 8 | > 8 | Hex-[Cys(tMeBn(DOTA-AET))-Pro-Pro-Thr-Gln-Phe-Cys]-Gly-OH (peptide) |
| > 8 | > 8 | Hex-[Cys(tMeBn(DOTA-AET))-Pro-Pro-Thr-Gln-Mpa-Cys]-OH (peptide) |
| > 8 | > 8 | Ac-Met-[Cys(3MeBn)-Pro-Pro-Thr-Glu-Phe-Cys]-Asp-His-Ppa-Arg-Asp-NH2 (peptide) |
|  | > 8 | DOTA-Ttds-Nle-[Cys(3MeBn)-Pro-Pro-Thr-Glu-Phe-Cys]-Asp-NH2 (peptide) |
| > 8 | > 8 | DOTA-Ttds-Nle-[Cys(3MeBn)-Pro-Pro-Thr-Gln-Phe-Cys]-Asp-NH2 (peptide) |
|  | > 8 | Hex-[Cys(3MeBn)-Pro-Pro-Thr-Gln-Otf-Cys]-NH2 (peptide) |
| > 8 | > 8 | H-Met-[Cys(3MeBn)-Pro-Pro-Thr-Glu-Phe-Cys]-Asp-His-Phe-Arg-Asp-Ttds-Lys(Bio)-NH2 (peptide) |
| > 8 | > 8 | Hex-[Cys(tMeBn(DOTA-AET))-Nmg-Pro-Thr-Gln-Phe-Cys]-OH (peptide) |
| > 8 | > 8 | Ac-Met-[Cys(3MeBn)-Pro-Pro-Thr-Glu-Phe-Cys]-Asp-His-phe-Arg-Asp-NH2 (peptide) |
| > 8 | > 8 | Hex-[Cys(3MeBn)-Pro-Pro-Thr-Glu-Phe-Cys]-Asp-Cmp-Arg-NH2 (peptide) |
| > 8 |  | Hex-[Cys(3MeBn)-Pro-Pro-Thr-Glu-Phe-Cys]-Bal-OH (peptide) |
| > 8 | > 8 | Ac-Met-[Cys(3MeBn)-Pro-Pro-Thr-Glu-Phe-Cys]-Asp-His-Phe-Arg-Ala-NH2 (peptide) |
| > 8 | > 8 | Hex-[Cys(3MeBn)-Pro-Pro-Thr-Glu-Phe-Cys]-Asp-Mamb-Arg-NH2 (peptide) |
| > 8 | > 8 | Hex-[Cys(3MeBn)-Pro-Pro-Thr-Gln-Phe-Cys]-Asp-Ttds-Lys(DOTA)-NH2 (peptide) |
| > 8 | > 8 | Ac-Met-[cys(3MeBn)-Pro-Pro-Thr-Glu-Phe-Cys]-Asp-His-Phe-Arg-Asp-NH2 (peptide) |
|  | < 6 | Hex-[Cys(3MeBn)-Pro-Pro-Thr-Ala-Phe-Cys]-NH2 (peptide) |
| > 8 | > 8 | Ac-Met-[Cys(3MeBn)-Pro-Pro-Thr-Glu-Phe-Cys]-Asp-His-Mpa-Arg-Asp-NH2 (peptide) |
| > 8 | > 8 | H-met-[Cys(3MeBn)-Pro-Pro-Thr-Glu-Phe-Cys]-Asp-His-Phe-Arg-Asp-NH2 (peptide) |
| > 8 | > 8 | Ac-Met-[Cys(3MeBn)-Pro-Pro-Thr-Glu-Phe-Cys]-Asp-His-Phe-arg-Asp-NH2 (peptide) |
| > 8 | > 8 | Hex-[Cys(3MeBn)-Pro-Pro-Thr-Glu-Phe-Cys]-Asp-His-Phe-Arg-Asp-Ttds-Lys(DOTA)-NH2 (peptide) |
| > 8 | > 8 | Hex-[Cys(tMeBn(DOTA-AET))-Pro-Pro-Thr-Gln-Phe-Cys]-Bhf-OH (peptide) |
| > 8 | > 8 | Hex-[Cys(tMeBn(DOTA-AET))-Pro-Pro-Thr-Gln-Otf-Cys]-OH (peptide) |
| > 8 | > 8 | Hex-[Cys(3MeBn)-Pro-Pro-Thr-Glu-Phe-Cys]-Asp-His-Nmf-Arg-Ttds-Lys(DOTA)-NH2 (peptide) |
|  | > 8 | Hex-[Cys(3MeBn)-Pro-Pro-Thr-Glu-Phe-Cys]-Pamb-Arg-NH2 (peptide) |
| > 8 | > 8 | Ac-Met-[Cys(3MeBn)-Gly-Pro-Thr-Glu-Phe-Cys]-Asp-His-Phe-Arg-Asp-NH2 (peptide) |
| > 8 | > 8 | Ac-Met-[Cys(3MeBn)-Pro-Pro-Thr-Glu-Phe-Cys]-Asp-His-Aic-Arg-Asp-NH2 (peptide) |

| pIC50 Category (FACS) [1] [pIC50] | pIC50 Category (Activity) [2] [pIC50] | Substance |
| --- | --- | --- |
| > 8 | > 8 | Hex-[Cys(tMeBn(DOTA-AET))-Pro-Pro-Thr-Gln-Phe-Cys]-Nmg-OH (peptide) |
| > 8 | > 8 | Ac-Met-[Cys(3MeBn)-Pro-Pro-Thr-Glu-Phe-Cys]-Asp-His-Nmf-Arg-Asp-NH2 (peptide) |
| > 8 | > 8 | Hex-[Cys(3MeBn)-Pro-Pro-Thr-Gln-Phe-Cys]-Bhk(DOTA-Ttds)-OH (peptide) |
| > 8 | > 8 | DOTA-Ttds-Nle-[Cys(3MeBn)-Pro-Pro-Thr-Gln-Phe-Cys]-Bal-OH (peptide) |
| > 8 | > 8 | DOTA-Ttds-Nle-[Cys(3MeBn)-Pro-Pro-Thr-Glu-Phe-Cys]-Asp-Pamb-Arg-NH2 (peptide) |
| > 8 | > 8 | Ac-Met-[Cys(3MeBn)-Pro-Pro-Thr-Glu-Phe-Cys]-Asp-His-Phe-Arg-Asp-NH2 (peptide) |
| > 8 | > 8 | Hex-[Cys(3MeBn)-Pro-Pro-Thr-Glu-Phe-Cys]-Asp-Arg-NH2 (peptide) |
| > 8 | > 8 | Ac-Met-[Cys(3MeBn)-Pro-Pro-Thr-Glu-Phe-Cys]-Asp-His-Tic-Arg-Asp-NH2 (peptide) |
| > 8 |  | Ac-Met-[Cys(3MeBn)-Pro-Pro-Thr-Glu-Phe-Cys]-Asp-Ala-Phe-Arg-Asp-NH2 (peptide) |
| > 8 | > 8 | Hex-[Cys(3MeBn)-Pro-Pro-Thr-Glu-Phe-Cys]-Asp-Pamb-Arg-NH2 (peptide) |
| > 8 | > 8 | Hex-[Cys(3MeBn)-Pro-Pro-Thr-Glu-Phe-Cys]-Asp-His-Ppa-arg-Ttds-Lys(DOTA)-NH2 (peptide) |
| > 8 | > 8 | Hex-[Cys(3MeBn)-Pro-Pro-Thr-Gln-Phe-Cys]-Bhk(DOTA)-OH (peptide) |
| > 8 | > 8 | Ac-Met-[Cys(3MeBn)-Pro-Pro-Thr-Glu-Phe-Cys]-Asp-his-Phe-Arg-Asp-NH2 (peptide) |
| > 8 | > 8 | Ac-Met-[Cys(3MeBn)-Pro-Pro-Thr-Glu-Phe-Cys]-Asp-His-Ala-Arg-Asp-NH2 (peptide) |
| > 8 | > 8 | Hex-[Cys(tMeBn(InDOTA-AET))-Pro-Pro-Thr-Gln-Phe-AET] (peptide) |
| > 8 | > 8 | Ac-Met-[Cys(3MeBn)-Pro-Pro-Thr-Glu-Phe-Cys]-Asp-His-Amf-Arg-Asp-NH2 (peptide) |
| > 8 | > 8 | Hex-[Cys(3MeBn)-Pro-Pro-Thr-Glu-Phe-Cys]-Asp-His-phe-Arg-Ttds-Lys(DOTA)-NH2 (peptide) |
| > 8 | > 8 | Ac-Met-[Cys(3MeBn)-Pro-Pro-Thr-Glu-Phe-Cys]-Asp-His-Phe-Arg-asp-NH2 (peptide) |
| > 8 | > 8 | Ac-Met-[Cys(3MeBn)-Pro-Pro-Thr-Glu-Phe-Cys]-Asp-His-Phe-Arg-NH2 (peptide) |
| > 8 | > 8 | Hex-[Cys(tMeBn(DOTA-AET))-Pro-Pro-Thr-Gln-1Ni-Cys]-OH (peptide) |
| > 8 | > 8 | Hex-[Cys(tMeBn(DOTA-AET))-Pro-Pro-Thr-Gln-Phe-Cys]-Bal-OH (peptide) |
| > 8 | > 8 | Hex-[Cys(tMeBn(DOTA-AET))-Pro-Pro-Thr-Gln-Phe-AET] (peptide) |
| > 8 | > 8 | Ac-met-[Cys(3MeBn)-Pro-Pro-Thr-Glu-Phe-Cys]-Asp-His-Phe-Arg-Asp-NH2 (peptide) |
| > 8 | > 8 | Ac-Met-[Cys(3MeBn)-Pro-Pro-Thr-Glu-Thi-Cys]-Asp-His-Phe-Arg-Asp-NH2 (peptide) |
| > 8 | > 8 | DOTA-Ttds-Met-[Cys(3MeBn)-Pro-Pro-Thr-Glu-Phe-Cys]-Asp-His-Phe-Arg-Asp-NH2 (peptide) |
| > 8 | > 8 | Hex-[Cys(tMeBn(DOTA-AET))-Pro-Hyp-Thr-Gln-Phe-Cys]-OH (peptide) |
|  | < 6 | Hex-[Cys(3MeBn)-Pro-Pro-Ala-Glu-Phe-Cys]-NH2 (peptide) |

Source: patent publication US20220315554A1, “COMPOUNDS COMPRISING A […] LIGAND AND USE THEREOF” (priority 2019, published 2022)
